Assay results: patent US11491206 (DUKE UNIVERSITY, dated 2022)

Target: T1, death receptor 5 (DR5) (UniProt O14763 56-182, limits assumed)
T1 construct: also called TRAIL Receptor 2; TRAILR2
Assay: not stated (told in the legend of the schematic FIG. 1A)

T1 sequence (O14763 56-182 limits assumed): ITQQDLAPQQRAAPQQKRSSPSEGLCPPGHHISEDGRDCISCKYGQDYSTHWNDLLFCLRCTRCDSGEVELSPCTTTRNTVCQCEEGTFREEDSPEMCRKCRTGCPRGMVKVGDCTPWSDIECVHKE

B1: DRA monomer (single Tn3 type III fibronectin domain of tenascin engineered to bind death receptor 5) (designed binder)
chain: GAIEVKDVTDTTALITWAKPWVDPPPLWGCELTYGIKDVPGDRTTIDLQQKHTAYSIGNLKPDTEYEVSLICFDPYGMRSKPAKETFTT
notes: also called Tn3 monomer; monomer of the Tn3 domain
B1 gave a Kd of 43 nM.
